Columns and labels:
[1] = target: cell surface PILRA on human monocytes (human, UniProt Q9UKJ1 20-303); assay: cell-based or functional assay
recombinant human PILRB [2] = target: T1, recombinant human PILRB (human, UniProt Q9UKJ0 20-191); assay: SPR, Carterra LSA, steady-state fit
Method: (§1) Binding kinetics of human anti-PILRA-IgG4 antibodies were evaluated by surface plasmon resonance (SPR) using a Carterra LSA instrument (Carterra, Salt Lake City, UT). Antibodies were immobilized in duplicate arrays onto an HC30M sensor chip (Carterra) by amine coupling according to the manufacturer's protocol. After priming the immobilized antibodies with HBS-EP+ (Teknova, Hollister, CA, #8022) running buffer with 0.5 mg/mL BSA (MP Biomedicals LLC, #820451), the immobilized antibodies were tested for their ability to bind to recombinant human PILRA (SEQ ID NO:1) and cynomolgus PILRA (SEQ ID NO:120) and to human PILRB (SEQ ID NO:105) and cynomolgus PILRB (SEQ ID NO:121).
(§2) For binding kinetics analysis, human and cynomolgus PILRA and PILRB analytes were diluted in running buffer to 440 to 470 nM, and diluted 3-fold serially five times, to 1.8 to 1.9 nM, and injected for five minutes over the entire chip using the single channel flow cell to measure association of binding to the immobilized antibodies. Dissociation of the analytes was measured for five minutes, followed by regeneration of the chip with two 30-second injections of 10 mM glycine pH 2.0.
For the human PILRB interactions, the binding was too weak and heterogenous for kinetic constants to be calculated in this assay. Therefore, steady-state affinities were estimated based on the binding level of each analyte concentration at the end of the injections.

recombinant human PILRA [3] = target: T2, recombinant human PILRA (human, UniProt Q9UKJ1 20-197); assay: SPR, Carterra LSA, antibody amine-coupled, kinetic fit
Method: as §1, §2

[4] = target: T3, recombinant cynomolgus PILRA (SEQ ID NO:120) (cynomolgus monkey); assay: as above
T3 construct: also called cyno PILRA
Method: as §1, §2

[5] = target: T4, human PILRA G78 on HEK293F cells (human, UniProt Q9UKJ1 20-303); assay: FACS on HEK293F cells, binding on human PILRA (hA) over human PILRB (hB)
T4 construct: also called hA; G78 OE
Method: Conditioned media samples containing the tested anti-PILRA antibodies were assessed for binding to HEK293F cells overexpressing human PILRA (hA), human PILRB (hB), and cynomolgus PILRA (cA) by FACS. The conditioned media containing the tested antibodies were incubated with the cells for 30 min at 4° C., washed twice, and then detected with goat anti-human IgG secondary antibody (Alexa Fluor 647) at 1:1000 dilution. The cells were analyzed by flow cytometry on FACS Canto II, and for all cell lines, the reported MFI values were calculated for each conditioned media. These antibodies were evaluated for nonspecific binding using a baculovirus particle (BVP) assay (Jain T., Sun T., Durand S., Hall A., Houston N. R., Nett J. H., Sharkey B., Bobrowicz B., Caffry L, Yu Y., et al. Biophysical properties of the clinical-stage antibody landscape. Proc. Natl. Acad. Sci. USA. 2017; 114:944-949. Doi: 10.1073/pnas.1616408114.). The BVP scores are listed in Table 9, and the higher the score the more nonspecific binding that occurred.

recombinant human PILRA [6] = target: T2, recombinant human PILRA; assay: SPR, Biacore T200, antibody captured by anti-Fab
Method: (§3) A subset of these antibodies was further evaluated using the Biacore T200 (Cytiva). Anti-PILRA antibodies were diluted to 10 μg/mL and captured using an anti-Fab (Cytiva, #28958325) surface on a CM4 chip, that was prepared by amine coupling according to the manufacturer's protocol. Human PILRA and cynomolgus PILRB were diluted in running buffer to 130 nM, and diluted 4-fold serially, twice, to 8 nM. Human PILRB was similarly diluted from 260 nM to 16 nM. These analytes were injected and allowed 2 minutes of association, followed by dissociation for 5 minutes.
(§4) Data were analyzed using Biacore evaluation software to generate kinetic constants. The equilibrium dissociation constants (KD) were calculated from the fitted association and dissociation rate constants (k-on and k-off) for each of the anti-PILRA antibodies. These Kn values are indicated with asterisks in Table 8 below.

recombinant human PILRB [7] = target: T1, recombinant human PILRB; assay: SPR, Biacore T200, antibody captured by anti-Fab
Method: as §3, §4

T1 sequence (Q9UKJ0 20-191 limits assumed): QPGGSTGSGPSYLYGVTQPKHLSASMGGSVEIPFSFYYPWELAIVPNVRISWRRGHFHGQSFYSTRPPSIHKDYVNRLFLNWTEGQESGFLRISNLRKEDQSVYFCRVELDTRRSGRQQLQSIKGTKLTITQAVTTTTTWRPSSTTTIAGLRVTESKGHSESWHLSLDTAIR
T3 sequence (chain, as listed by the source limits assumed): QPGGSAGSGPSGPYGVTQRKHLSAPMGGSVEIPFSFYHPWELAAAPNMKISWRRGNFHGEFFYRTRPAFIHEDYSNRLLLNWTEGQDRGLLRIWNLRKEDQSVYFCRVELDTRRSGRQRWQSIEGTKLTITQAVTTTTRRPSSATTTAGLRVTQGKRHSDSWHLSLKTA
T2 sequence (Q9UKJ1 20-197 limits assumed): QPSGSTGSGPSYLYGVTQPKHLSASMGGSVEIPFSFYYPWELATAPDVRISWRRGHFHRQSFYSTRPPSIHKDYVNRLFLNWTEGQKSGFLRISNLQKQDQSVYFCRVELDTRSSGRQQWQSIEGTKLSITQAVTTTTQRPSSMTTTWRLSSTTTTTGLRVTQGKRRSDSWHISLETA
Chain of cell surface PILRA on human monocytes (Q9UKJ1 20-303): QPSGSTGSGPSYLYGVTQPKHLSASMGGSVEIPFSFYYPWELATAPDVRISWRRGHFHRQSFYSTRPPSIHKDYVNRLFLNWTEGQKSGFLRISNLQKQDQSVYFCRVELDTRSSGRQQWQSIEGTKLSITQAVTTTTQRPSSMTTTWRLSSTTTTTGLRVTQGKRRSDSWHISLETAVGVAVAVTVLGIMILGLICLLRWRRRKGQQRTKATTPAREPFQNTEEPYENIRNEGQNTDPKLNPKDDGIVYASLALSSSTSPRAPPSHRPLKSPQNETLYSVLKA
T4 sequence (Q9UKJ1 20-303 R78G): as the sequence (Q9UKJ1 20-303) above, with R59G counted along it

Binder	Hu Mono DR EC50 [1] [µg/mL]	Kd (recombinant human PILRB [2]) [nM]	Kd (recombinant human PILRA [3]) [nM]	Kd [4] [nM]	hA/hB binding ratio on HEK293F [5]	Kd (recombinant human PILRA [6]) [nM]	Kd (recombinant human PILRB [7]) [nM]
X20 (antibody, human IgG4, V domains shown, conditioned media in the HEK293F assays) VH: QVQLVQSGAEVKKPGSSVKVSCKASGYNFLHYDVNWVRQAPGQGLEWMGGIIPIFGTANYAQKFQGRVTITADESTSTAYMELSSLRSEDTAVYYCATAVGAGWFDPWGQGTLVTVSS VL: DIVMTQSPDSLAVSLGERATINCKSSQSVYFSENNKNYLAWYQQKPGQPPKLLIYWASTRESGVPDRFSGSGSGTDFTLTISSLQAEDVAVYYCQQYYEEPYTFGQGTRLEIK	~0.02	2	0.5	0.1	6.7		
X21 (antibody, human IgG4, V domains shown) VH: QVQLVQSGAEVKKPGSSVKVSCKASGYNFLHYDVNWVRQAPGQGLEWMGGIIPIFGTANYAQKFQGRVTITADESTSTAYMELSSLRSEDTAVYYCATGVGAGWFDPWGQGTLVTVSS VL: not shown		43	1.8	0.1		1.9	
X22 (antibody, human IgG4, V domains shown) VH: QVQLVQSGAEVKKPGSSVKVSCKASGYNFLHYDVNWVRQAPGQGLEWMGGIIPIFGTANYAQKFQGRVTITADESTSTAYMELSSLRSEDTAVYYCATGVGAGWFDPWGQGTLVTVSS VL: not shown		54	2.2	0.2		6.2	14
X32 (antibody, human IgG4, V domains shown) VH: QVQLVQSGAEVKKPGSSVKVSCKASGYNFLHYDVNWVRQAPGQGLEWMGGIIPIFGTANYAQKFQGRVTITADESTSTAYMELSSLRSEDTAVYYCATAVGAGWFDPWGQGTLVTVSS VL: DIVMTQSPDSLAVSLGERATINCKSSQSVFFDVNNKNYLAWYQQKPGQPPKLLIYWASTRESGVPDRFSGSGSGTDFTLTISSLQAEDVAVYYCQQYYEEPYTFGQGTRLEIK		2	0.1	0.1			

Further lines, results first:

Hu Mono DR EC50 [1] [µg/mL]	Kd (recombinant human PILRB [2]) [nM]	Kd (recombinant human PILRA [3]) [nM]	Kd [4] [nM]	hA/hB binding ratio on HEK293F [5]	Kd (recombinant human PILRA [6]) [nM]	Kd (recombinant human PILRB [7]) [nM]	Binder
0.005	2	0.5	0.1	6.1			X16 (antibody, human IgG4, V domains shown, conditioned media in the HEK293F assays) VH: QVQLVQSGAEVKKPGSSVKVSCKASGYNFLHYDVNWVRQAPGQGLEWMGGIIPIFGTANYAQKFQGRVTITADESTSTAYMELSSLRSEDTAVYYCATAVGAGWFDTWGQGTLVTVSS VL: DIVMTQSPDSLAVSLGERATINCKSSQSVYFDVNNKNYLAWYQQKPGQPPKLLIYWASTRESGVPDRFSGSGSGTDFTLTISSLQAEDVAVYYCQQYFEEPYTFGQGTRLEIK
	2	0.6	0.1				X33 (antibody, human IgG4, V domains shown) VH: QVQLVQSGAEVKKPGSSVKVSCKASGYNFLHYDVNWVRQAPGQGLEWMGGIIPIFGTANYAQKFQGRVTITADESTSTAYMELSSLRSEDTAVYYCATAVGAGWFDPWGQGTLVTVSS VL: not shown
